Our source for the FRET efficiency E τ(φ) and Kd values is article PMC6151112, “Identification of MOS9 as an interaction partner for chalcone synthase in the nucleus” (PeerJ, 2018).

As usually defined, the Kd is the free concentration of one partner at which half of the binding sites on the other are occupied at equilibrium, for simple one-to-one binding.

Test [1] has as its target CHS-syfp2 fusion (Arabidopsis) (UniProt P13114). Nature of the test: FRET or BRET; frequency domain FLIM-FRET in Arabidopsis tt4-11 mesophyll protoplasts; donor MOS9-scfp3a, acceptor SYFP2 fusions; E from phase-shift lifetimes.
In test [2] the target is T1, recombinant chalcone synthase (CHS) (Arabidopsis, UniProt P13114 1-395).
T1 construct: chalcone synthase (CHS), Arabidopsis, At5g13930; The construct for recombinant CHS is not described; earlier work of the same laboratory may hold it (possibly with a carrier protein); also called recombinant CHS; source: E. coli BL21 (DE3) pLysS, purified (nickel column, FPLC)
T1 sequence (looked up): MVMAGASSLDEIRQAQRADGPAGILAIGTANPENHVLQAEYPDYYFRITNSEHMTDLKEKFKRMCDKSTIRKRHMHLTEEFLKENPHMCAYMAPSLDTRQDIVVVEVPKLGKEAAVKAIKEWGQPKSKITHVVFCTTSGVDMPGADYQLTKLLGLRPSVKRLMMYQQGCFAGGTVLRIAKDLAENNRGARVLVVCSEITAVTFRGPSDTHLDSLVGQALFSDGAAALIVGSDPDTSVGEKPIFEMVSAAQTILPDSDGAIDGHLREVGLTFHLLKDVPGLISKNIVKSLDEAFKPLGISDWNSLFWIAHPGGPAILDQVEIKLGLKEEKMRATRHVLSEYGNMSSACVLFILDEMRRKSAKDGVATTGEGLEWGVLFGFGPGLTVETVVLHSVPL
The test is described as follows: SPR; CHS immobilised by amine coupling on a planar PEG/carboxyl chip (Reichert SR7000); MOS9 0.1-1 uM flowed over in 10 mM HEPES pH 7.5, 150 mM NaCl, 1 mg/ml BSA, 50 ul/min; KD from Koff/Kon. Conditions: both partners purified.

As for MOS9-scfp3a fusion (natural protein), the FRET efficiency E τ(φ) in test [1] came to 6.5%.

B1: MOS9::V5::6xHis recombinant protein (natural protein, Arabidopsis, UniProt F4IDT4 1-193, looked up)
chain: MMGMARKISKEEVVEKLKDDGDFDRLRLKIIRRLKENEDLRNNMISVVKESTSLKRHGAQNMKTRQLSDAIFEEVGSKMLSQLSDGLWGIIRSEDGMKNEIRETVQSVYATLSNPRGEKRGTSAREMEHKIPTPKKEARTDFNTSPASKQKQELIKGAVEDNKGEACSDDVQDNKGEAYNDDEEDPELPPGFG
notes: MOS9, Arabidopsis, At1g12530, coding region minus the stop codon (193 amino acids), from clone pENTR221-AT1G12530, recombined into pET-DEST42; Gateway recombination leaves linker residues between MOS9 and the tags; also called At1g12530 protein; recombinant protein generated in E. coli from At1g12530 cDNA; source: E. coli BL21 (DE3) pLysS, purified (nickel column, FPLC); not shown: V5, …
Take B1: the Kd in test [2] was determined as 0.21 µM.
